One may read the % Inhibition as the share of the control response that was lost under treatment. For orientation: EC50 means the midpoint of the concentration-response curve. A word on the IC50: it is the concentration needed to halve the response being measured.

This is an account of results in patent US20170145086A1 (VISTERRA, published 2017).

Changes are numbered by the printed parent chain.

The chains are these.
B1: monoclonal antibody 2218 (antibody, mouse IgG2, V domains shown)
VH: DVQLQESGPGLVKPSQSLSLTCSVTGYSITSGYYWNWIRQFPGNKLEWMGYISYDGYNNYNPSLKNRISITRDTSKNQFFLKLNSVTTEDTATYYCANYYDYEDWYFGVWGTGTTVTVSS
VL: DIVLTQSPASLAMSLGKRATISCRASESVSIIGTNSIHWYQQKPGQPPKLLIYHASNLETGVPARFSGSGSRTDFTLTIDPVEEDDVAIYYCLQSRKIPYTFGGGTKLEIK
B2: monoclonal antibody 4540 (antibody, V domains shown)
VH: QVQLQQSGPELVKPGASVKISCKASGYTFADYYINWVKQRPGQGLEWIGWIFPGSGSTYYNEKFKGKATLTVDKSSSTAYMLLSSLTSEDSAVYFCARGDSGRAMDYWGQGTSVTVSS
VL: DIQMTQSPSSLSASLGGKVTITCKASQDINKYIAWYQHKPGKGPRLLIHYTSTLQSGIPSRFSGSGSGRDYSFSISNLEPEDNATYYCLQYDNLLTFGAGTKLELK
notes: mouse-derived
B3: monoclonal antibody 3833 (antibody, V domains shown)
VH: QVQLQQSGAELVRPGTSVKMSCKAAGYTFTNYWIGWVKQRPGHGLEWIGDIYPGGIGGGYTKYNEKFKGKATLTADTSSSTAYMQLGSLTSEDSAIYFCSRSETGRAMDYWGQGTSVTVSS
VL: B2 VL with Q55K, S56P, N77D, N83I, L95N, A99G, L105I
notes: mouse-derived
B4: monoclonal antibody 3530 (antibody, mouse IgG2, V domains shown)
VH: QVQLQQSGAELVRPGASVKLSCKASGYTFTDHEMHWVRQTPVHGLEWIGVIDPDTGDTTYNQKFKGKATLTADKSSSTAYMDLRSLTSEDSAVFYCTRWTGGDYWGHGTTLTVSS
VL: DAVMTQTPLSLSVTIGQPASISCKSSQSLLYSDGKTYLNWFQQRPGQSPKRLMYQVSKLDPGIPDRFSGSGSETDFTLKISRVEAEDLGVYYCLQGTYYPYTFGSGTKLEIK
B5: 4237 (antibody, V domains shown)
VH: QAHLKESGPGLVAPSQSLSITCTVSGFSLTDYDVHWVRQSPGKGLEWLGVIWNDGSTDYNTAFISRLTISKDNSKSQVFFKMNSLQADDTAIYYCARNWYGGYWFAYWGQGTLVTVSA
VL: DIQMTQSPASLSASAGETVTITCRSSENIYSYLAWYQQKQGKSPQLLVYNANALAEGVPSRFSGSGSVTQFSLKINSLQPEDFGSYYCQHHYGTPFTFGSGTKLEIK
notes: also called monoclonal antibody 4237
B6: monoclonal antibody 3631 (antibody, V domains shown)
VH: EIQLQQSGPELVKPGASVKVSCKASGYSFTDYNIYWVKQSHGKSLEWIGYIDPSNGGPGYNQKFRGKATLTVDKSSSTAFLHLNSLTSEDSAVYYCARRDNYGSGTMDYWGQGTSVTVSS
VL: DIVMTQSQKFMSTSVGDRVSITCKASQNVGTDVSWYQQKPGKSPKPLIYWASNRFTGVPDRFIGSGSGTDFTLTISNVQSEDLADYFCEQYSIYPLTFGAGTKLELK
notes: mouse-derived
B7: monoclonal antibody 3732 (antibody, V domains shown)
VH: B6 VH with Y32D, I34M, S54L, P58T, R65K, G103A, S104T
VL: B6 VL with Q27K, I63T, S76N, I93S
notes: mouse-derived

In one experiment the target is T1, HA-GCN4 hAPRIL (amino acid residues 105-250) (human, UniProt O75888 105-250).
T1 construct: Bought (R&D Systems); also called HA-tagged GCN4 human APRIL; HA-GCN4-huAPRIL; not shown: N-terminal HA tag; GCN4 isoleucine zipper oligomerization domain
T1 sequence: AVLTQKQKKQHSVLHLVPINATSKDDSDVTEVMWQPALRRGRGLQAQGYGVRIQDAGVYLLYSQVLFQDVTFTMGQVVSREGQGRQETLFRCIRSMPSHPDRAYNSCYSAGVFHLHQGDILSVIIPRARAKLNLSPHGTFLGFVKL
The experiment in a line: blocking ELISA; blocked: human APRIL binding to human TACI-Fc. The arrangement: concentration or dose not given beside the values. On the procedure: (§1) FIGS. 19A-19B depict the antibody inhibition of APRIL binding to TNFSF receptors TACI (FIG. 19A) and BCMA (FIG. 19B). Assay is based on blocking ELISA using recombinant human APRIL (R&D Systems) and Human TACI-Fc. Inhibition was analyzed by non-linear regression using a four parameter fit.
(§2) Recombinant TACI-Fc or BCMA-Fc was coated on 96 well plates in 0.1 M carbonate-bicarbonate buffer (pH 9.6), overnight at 4° C. Plates were washed three times with 1×PBST (PBS+0.025% Tween 20) followed by blocking with 1% BSA in 1×PBS, 37° C. for 1 hour. All subsequent wash steps were carried out with 1×PBST. To assess antibody blocking, either 15 ng/mL or 50 ng/mL HA-GCN4-huAPRIL was preincubated with varying antibody concentrations ranging from 0.03-30 μg/mL in binding buffer comprised of 1% BSA and 0.025% Tween-20 in 1×PBS. Preincubation was carried out at 30° C. for 1 hour with mixing. Antibody-APRIL premix with 50 ng/mL APRIL or 15 ng/mL APRIL was then added to TACI-Fc coated or BCMA-Fc coated plates, respectively, and incubated for an additional hour at 30° C. HA-tagged APRIL binding to either receptor was quantified using a goat polyclonal anti-HA tag-HRP antibody (Abcam) added at a 1:10000 dilution followed by colorimetric development using 100 μl/well of freshly prepared TMB substrate (KPL) carried out for up to 30 minutes at room temperature before quenching enzymatic reaction by the addition of 1N sulfuric acid. ELISA signal was quantified by absorbance at 450 nm. ELISA data was analyzed by non-linear regression. IC₅₀ values were calculated based on a 4 parameter fit of antibody titration curves. […] Non-blocking antibodies Aprly-1 or Aprly-5 (Enzo Biosciences) were used as negative controls. Mouse specific, blocking antibody aprily-1-1 (Adipogen) was generally used as a positive control in experiments using mouse APRIL (HA-GCN4-mAPRIL).
(In general: An ELISA detects its analyte on a solid surface through an enzyme-linked reagent.)
With B1, the “% Inhibition” value stood at 40%.

Regarding B2, the “% Inhibition” value was determined as 65%.

Consider B3, for which the “% Inhibition” value worked out at 72%.

Turning to B4, the “% Inhibition” value is 89%.

As to B5, the “% Inhibition” value came out at 95%.

As for B6, the “% Inhibition” value is 63%.

For a further experiment, the target named is T2, HA-GCN4 mAPRIL (amino acid residues 96-241) (mouse, UniProt Q9D777 96-241, Assembles as a homotrimer through the GCN4 zipper; one protomer is given.).
T2 construct: Bought (R&D Systems); also called HA-tagged mouse APRIL (R&D Systems); recombinant mouse APRIL; not shown: N-terminal HA tag and GCN4 isoleucine-zipper trimerisation domain, with any linker, of the bought R&D Systems protein
T2 sequence: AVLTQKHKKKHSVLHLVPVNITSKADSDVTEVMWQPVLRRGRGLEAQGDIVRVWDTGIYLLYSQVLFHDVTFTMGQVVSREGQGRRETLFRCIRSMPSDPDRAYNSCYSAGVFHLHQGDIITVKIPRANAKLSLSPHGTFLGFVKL
The experiment in a line: blocking ELISA; blocked: mouse APRIL binding to BCMA.
For B2, the “IC50 (read off the curve)” value was around 0.3 µg/mL.

Consider B3, for which the “IC50 (read off the curve)” value is around 0.06 µg/mL.

As to B4, the “IC50 (read off the curve)” value was around 0.3 µg/mL.

In the case of B6, the binding result is on record as “binds”.

On to B7, for which the binding result is “binds”.

The target of another experiment is T1, HA-GCN4 hAPRIL (amino acid residues …). Nature of the experiment: indirect ELISA on human APRIL; column head prints IC50 (pM), legend paragraph 725 calls the values EC50. The text has this: Purified antibodies were further characterized for APRIL binding, APRIL species cross reactivity (human APRIL vs. mouse APRIL), and receptor blocking activity using TACI-Fc. For binding, an APRIL-based indirect ELISA was used to determine by first approximation the relative affinity of purified anti-APRIL antibodies to either human APRIL or mouse APRIL. ELISA method was as generally described above. […] Blocking and wash steps were completed as described. Binding of anti-APRIL antibodies to APRIL was quantified using an 8 point dilution of test antibody that spanned over a four log scale. Antibody binding to APRIL was detected using a rabbit anti-mouse IgG (H+L)-HRP conjugate (Jackson ImmunoResearch Laboratories). Antibody binding data was analyzed by non-linear regression analysis using a 3 parameter fit to determine max binding and apparent EC₅₀ values. […] Mouse specific antibody Apry-1-1 (Adipogen) was likewise used for quantification of antibody binding to mouse APRIL.
In turn, B1 returned an EC50 of 0.005 nM.

Consider B2, for which the half-maximal effective concentration (EC50) worked out at 0.0129 nM.

B3: the EC50 turned out to be 0.0175 nM.

Turning to B4, the EC50 worked out at 0.0489 nM.

B5 returned a concentration for a half-maximal effect (EC50) of 0.0126 nM.

B6: the concentration giving a half-maximal response (EC50) came out at 0.0166 nM.

B7 gave a half-maximal effective concentration (EC50) of 0.0072 nM.

For another experiment the target is unchanged. The experiment in a line: blocking ELISA, 4-parameter fit; blocked: human APRIL binding to human TACI-Fc. The procedure:
as §1, §2
B1 had an IC50 of 0.98 nM.

Turning to B2, the concentration for half-maximal inhibition (IC50) was 1.01 nM.

Consider B3, for which the 50% inhibitory concentration (IC50) was found to be 2.25 nM.

For B4, the IC50 came to 2.9 nM.

The molecule B5 came in with a 50% inhibitory concentration (IC50) of 0.9 nM.

For B6, the half-maximal inhibitory concentration (IC50) turned out to be 0.27 nM.

The next experiment concerns the target T3, human FasL (TNFSF6, Adipogen) (human, UniProt P48023 103-281, limits assumed).
T3 sequence (looked up): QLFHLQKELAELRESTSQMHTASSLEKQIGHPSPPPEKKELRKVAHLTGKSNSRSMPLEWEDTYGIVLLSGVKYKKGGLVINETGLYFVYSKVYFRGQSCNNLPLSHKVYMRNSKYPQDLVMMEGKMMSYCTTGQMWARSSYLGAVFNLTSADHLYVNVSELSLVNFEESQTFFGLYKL
Nature of the experiment: indirect ELISA, cytokine coated.
Turning to B1, the binding result was “no binding (tested: 10 µg/ml (p-1128))”.

With B2, the binding result is “no binding (tested: 10 µg/ml (p-1128))”.

For the molecule B4, the binding result is “no binding (tested: 10 µg/ml (p-1128))”.

Regarding B5, the binding result is reported as “no binding (tested: 10 µg/ml (p-1128))”.

Consider B6, for which the binding result is recorded as “no binding (tested: 10 µg/ml (p-1128))”.

For B7, the binding result is listed as “no binding (tested: 10 µg/ml (p-1128))”.
